Here are results for one molecule from EP3848397A1 (NANJING UMAB-BIOPHARMA CO., LTD., dated 2021).

Holding throughout (assay): cell-based or functional assay
In test [1] the target is T1, OX40 on Jurkat-OX40-NFκB-luciferase reporter cells (UniProt P43489 29-277).
T1 sequence (looked up): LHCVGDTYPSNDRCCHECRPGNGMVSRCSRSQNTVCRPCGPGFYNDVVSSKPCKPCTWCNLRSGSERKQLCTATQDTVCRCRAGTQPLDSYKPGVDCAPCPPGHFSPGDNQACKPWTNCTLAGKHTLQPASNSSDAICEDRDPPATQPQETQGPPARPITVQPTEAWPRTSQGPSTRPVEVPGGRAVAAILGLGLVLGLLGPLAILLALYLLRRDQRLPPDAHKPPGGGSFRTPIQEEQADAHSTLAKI

Test [2] addresses T1, OX40 on Jurkat-OX40-NFκB-luciferase …. This is another data set of the same source.
Test [3] has the same target. This is another data set of the same source.

Where two headings read alike, the source gives them in different places.

B1: MT01-C1 (antibody, human IgG1, V domains shown)
VH: EVQLVQSGAEVKKPGESLKISCKASGYTFTSYVMHWLRQMPGKGLEWMGYINPYNDGTKYNEKFKGQVTISSDKSISTAYLQWSSLKASDTAMYYCANYYGSKFAMDYWGQGTMVTVSS
VL: DIQMTQSPSSVSASVGDRVTITCRASQDISNYLSWYQQKPGGAVKLLIYYTSRLHSGVPSRFSGSGSGTDYTLTISSLQPEDFATYFCQQGITLPWTFGQGTKVEIK
Turning to B1, the “EC50 of NFκB-luciferase reporter activation (FcR-mediated)” value in test [1] came to 0.0452 ng/mL. Besides, the “Activation activity of OX40 signaling pathway, EC50” value in test [2] worked out at 325 pM; in test [3], 178 pM.
